In paper PMC1500806, “Carrageenan Is a Potent Inhibitor of Papillomavirus Infection” (PLoS Pathogens, 2006):

How the values were obtained:
HPV16 PsV = format: cell-based, human papillomavirus; conditions: HeLa cells, nonpolysaccharide compounds, dash = no inhibition at noncytotoxic doses
Procedure: Various candidate HPV infection inhibitors were tested using a PsV-based inhibition assay. The assay uses flow cytometric analysis to assess the inhibition of PsV-mediated delivery of a green fluorescent protein (GFP) reporter plasmid into HeLa cells. HPV16, an exceptionally oncogenic genital HPV type, was chosen as a model HPV for initial experiments.
(§1) Compounds were tested using a previously described PsV-based papillomavirus inhibition assay. Briefly, HeLa cells were plated at 6,000 cells/well in 50 μl of medium in 96-well plates. Candidate inhibitors were dissolved at 1–10 mg/ml (or reconstituted as directed by manufacturer) in sterile water or appropriate solvent, then subjected to a ten-point three-fold serial dilution covering an appropriate concentration range. Diluted candidate inhibitor (50 μl) was added to preplated HeLa cells, followed by 50 μl of diluted PsV stock. The cells were incubated for 24 h, fed by addition of 100 μl of DMEM-10, then subjected to flow cytometric analysis 48–56 h after infection. IC50 values and 95% CI were determined using Prism (GraphPad Software, San Diego, California, United States) to calculate a variable slope sigmoidal dose-response curve.
PsV doses were calibrated such that between 5% and 20% of cells scored as GFP^+ when no inhibitors were added. […] HPV5 PsV infection of HeLa cells was performed with a dose of 35 ng/ml L1. […]

HeLa cells = experiment: Cytotoxicity (WST-1 turnover and/or cell morphology); format: cell-based; conditions: >50% reduction in WST-1 turnover and/or altered cell morphology
Procedure: as §1
Cytotoxicity was defined as a >50% reduction in the net turnover of the metabolic substrate WST-1 (Roche, Indianapolis, Indiana, United States) and/or by the appearance of dramatic alterations in the microscopic appearance of cell morphology at the time of harvest.

B1: Lactoferrin (protein, UniProt P24627 20-708, looked up)
Lactotransferrin: APRKNVRWCTISQPEWFKCRRWQWRMKKLGAPSITCVRRAFALECIRAIAEKKADAVTLDGGMVFEAGRDPYKLRPVAAEIYGTKESPQTHYYAVAVVKKGSNFQLDQLQGRKSCHTGLGRSAGWIIPMGILRPYLSWTESLEPLQGAVAKFFSASCVPCIDRQAYPNLCQLCKGEGENQCACSSREPYFGYSGAFKCLQDGAGDVAFVKETTVFENLPEKADRDQYELLCLNNSRAPVDAFKECHLAQVPSHAVVARSVDGKEDLIWKLLSKAQEKFGKNKSRSFQLFGSPPGQRDLLFKDSALGFLRIPSKVDSALYLGSRYLTTLKNLRETAEEVKARYTRVVWCAVGPEEQKKCQQWSQQSGQNVTCATASTTDDCIVLVLKGEADALNLDGGYIYTAGKCGLVPVLAENRKSSKHSSLDCVLRPTEGYLAVAVVKKANEGLTWNSLKDKKSCHTAVDRTAGWNIPMGLIVNQTGSCAFDEFFSQSCAPGADPKSRLCALCAGDDQGLDKCVPNSKEKYYGYTGAFRCLAEDVGDVAFVKNDTVWENTNGESTADWAKNLNREDFRLLCLDGTRKPVTEAQSCHLAVAPNHAVVSRSDRAAHVKQVLLHQQALFGKNGKNCPDKFCLFKSETKNLLFNDNTECLAKLGGRPTYEEYLGTEYVTAIANLKKCSTSPLLEACAFLTR
- IC50 (HPV16 PsV): 13 µg/mL
- Cytotoxicity (HeLa cells): >780 µg/mL
